Legend:
[1] = target: peptide SEQ ID NO:236 (tag moiety …, GGS spacers, cargo peptide)
[2] = target: peptide SEQ ID NO:237 (tag moiety …, GGS spacer, cargo peptide)
[3] = target: peptide SEQ ID NO:240 (tag moiety …, no spacer, cargo peptide)
[4] = target: peptide SEQ ID NO:243 (tag moiety …, GGS spacer, cargo peptide)
[5] = target: peptide SEQ ID NO:228 (tag moiety …, AAY spacers, cargo peptide)
[6] = target: peptide
[7] = target: peptide SEQ ID NO:230 (tag moiety …, GGS spacers, cargo peptide)
[8] = target: peptide SEQ ID NO:234 (tag moiety …, AAY spacers, cargo peptide)
[9] = target: peptide SEQ ID NO:235 (tag moiety […], AAA spacers, cargo peptide)

B1: bispecific binding molecule comprising a first specific binding molecule (comprising SEQ ID NO:265 a (bispecific antibody)
VH: EVQLLESGGGLVQPGGSLRLSCAASGFTFSSYAMSWVRQAPGKGLEWVSGISGYSGSTYYADSVKGRFTISRDNSKNTLYLQMNSLRAEDTAVYYCARYYSYYGYYYFDYWGQGTLVTVSS
VL: DIQMTQSPSSLSASVGDRVTITCRASQSISSYLNWYQQKPGKAPKLLIYAASSLQSGVPSRFSGSGSGTDFTLTISSLQPEDFATYYCQQGYPYPFTFGQGTKLEIK
scFv: QVQLVQSGAEVKKPGASVKVSCKASGFNIKDFNIHWVRQAPGQGLEWIGRIDPESGDAEYVPKFQGRVTMTRDTSTSTVYMELSSLRSEDTAVYYCTTGSYDLDVEYWGQGTLVTVSSGGGGSGGGGSGGGGSGGGGSDIQMTQSPSSLSASVGDRVTITCHASQNINVWLSWYQQKPGKAPKLLIYKASTLHTGVPSRFSGSGSGTDFTLTISSLQPEDFATYYCQQGQSYPLTFGQGTKLEIK
Question: With B1 as the binder, how does the Kd [1] read?
Answer: 0.012 nM

Question: What about the Kd [2] of the same binder?
Answer: 0.076 nM

Question: And the Kd [3]?
Answer: 0.0055 nM

Question: What about the Kd [4] of the same binder?
Answer: 0.0027 nM

Question: What about the Kd [5] of the same binder?
Answer: 0.0078 nM

Question: And the Kd [6]?
Answer: 0.012 nM

Question: What about the Kd [7] of the same binder?
Answer: 0.016 nM

Question: What about the Kd [8] of the same binder?
Answer: 0.017 nM

Question: What about the Kd [9] of the same binder?
Answer: 0.011 nM

Reference: patent EP4663199A1 (Strike Pharma AB, dated 2025)
